Among the data in patent US20110152500A1 are Kd, koff and kon values, retold here.

Experiment [1] deals with VCAM1-Trx (human) (UniProt P19320). Nature of the experiment: SPR (Biacore), synthetic peptide.
For experiment [2] the target is unchanged. Briefly: SPR (Biacore), immobilisation of VCAM1 not stated. In general terms: SPR reads the build-up and loss of mass on a sensor chip optically.

Take QARDCTGSWTWENGKWTWKGPSICPI [Peptide 1 specific to VCAM1 (bipodal-peptide binder)]: in the experiment with VCAM1-Trx (human) [1], the Kd (usually the free concentration of one partner at which half of the binding sites on the other are occupied at equilibrium, for simple one-to-one binding) was 318 nM. Besides, in the experiment with VCAM1-Trx (human) [2], the koff (in general, a measure of how fast the partners let go of each other) was 0.1 s⁻¹ and the association rate constant (kon) (in general, the rate constant with which the complex forms) came out at 330000 M⁻¹ s⁻¹.
